Assay results from publication PMC9552611, “MtTRC-1, a Novel Transcription Factor, Regulates Cellulase Production via Directly Modulating the Genes Expression of the Mthac-1 and Mtcbh-1 in Myceliophthora thermophila”.

T1: GST-MtTRC-1-DBD (Myceliophthora thermophila ATCC 42464) (UniProt G2Q031)
T1 sequence: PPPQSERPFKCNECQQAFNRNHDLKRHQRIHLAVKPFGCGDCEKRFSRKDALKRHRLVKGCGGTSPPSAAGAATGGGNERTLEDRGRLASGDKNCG

T2: GST-MtTRC-1-DBD (Myceliophthora thermophila ATCC 42464, UniProt G2Q031 355-450)
T2 sequence: T1 sequence

B1: Mthac-1-P7-FP-M4 (dsDNA)
DNA 1: GATGTGTTTTACAATCGTTCTATTTATTCATTGCTTGACTTGTGGG
DNA 2: CCCACAAGTCAAGCAATGAATAAATAGAACGATTGTAAAACACATC

Key:
[1] = biological target: T1, GST-MtTRC-1-DBD (Myceliophthora thermophila ATCC 42464); assay: EMSA; conditions: EMSA: 20 mM Tris-base pH 7.5, 20 mM KCl, 10 mM MgCl2, 2 mM DTT, 0.5 ug/uL BSA, 0.2 mg/mL fish sperm DNA, 5% glycerol, 25 C 30 min, 10 ng probe; gel 5% PAGE …
GST-MtTRC-1-DBD = biological target: T2, GST-MtTRC-1-DBD; assay: EMSA; EMSA: 20 mM Tris-base pH 7.5, 20 mM KCl, 10 mM MgCl2, 2 mM DTT, 0.5 ug/uL BSA, 0.2 mg/mL fish sperm DNA, 5% glycerol, 25 C 30 min, 10 ng probe; gel 5% PAGE 0.5x TBE 4 C. Footprinting: 400 ng probe in 40 uL, 25 C 30 min; conditions: protein: recombinant; tags: GST (N-terminal, pGEX-4T-1); label: Cy5

Molecule | binding [1] | binding result (GST-MtTRC-1-DBD)
TTTGCACCATGGAACCTGTGCCCAAAGAACCAAAGAACGCTATTCGCACATATTGCGAATCAGTTGCCAGTGATAGGGGGCGGGGACAGAACCCAAGCCGAGACATACTGTACAACCCAGCGGGTTGTCAATTGCACGCTACATGGTGTAATTTGTATTCCGGACGCACATCATTTCGCAGTTAAGGTTGTGCCCGCTTTTCTGCACTGCCGCTTTGGCGTCTCTTTTTTTTTTTTTTTACGAAGGCTTGCAAGGCGACGTCTTACGCGGTCGGACTTGAATCAGACA (double strand) [Mthac-1-P3] | binds | –
B1 | – | no binding
